The results in this text go back to patent US7153676B1, “Transacylases of the paclitaxel biosynthetic pathway” (priority 1999, dated 2006).

Several values for one entry are separate records, joined by “and”; a condition that tells them apart may be missing. Equal entries are not always repeated.

In series [1] the target is T1, 10-deacetylbaccatin III-10-O-acetyl transferase (TAX6) (Taxus cuspidata, UniProt Q9M6E2).
T1 construct: to amplify the putative full-length acetyl transferase gene and incorporate NdeI and XbaI restriction sites; made in house; host or cells: E. coli JM109 (pCWori+)
T1 sequence (Q9M6E2 1-440): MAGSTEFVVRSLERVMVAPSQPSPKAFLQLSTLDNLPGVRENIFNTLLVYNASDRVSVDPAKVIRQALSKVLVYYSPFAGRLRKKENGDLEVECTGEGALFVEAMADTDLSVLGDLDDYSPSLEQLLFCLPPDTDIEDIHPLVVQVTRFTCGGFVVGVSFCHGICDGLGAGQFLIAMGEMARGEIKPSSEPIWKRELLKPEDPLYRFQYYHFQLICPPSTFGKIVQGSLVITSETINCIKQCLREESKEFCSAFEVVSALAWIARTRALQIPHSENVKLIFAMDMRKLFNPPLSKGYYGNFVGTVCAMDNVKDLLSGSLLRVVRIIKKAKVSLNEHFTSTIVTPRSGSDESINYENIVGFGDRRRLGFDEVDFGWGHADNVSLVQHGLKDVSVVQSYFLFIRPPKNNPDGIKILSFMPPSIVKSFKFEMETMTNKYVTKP
It counts as biochemical. As to the method: For the enzyme preparation, E. coli cells transformed with the pCWori+ vector harboring the putative DBAT gene were grown overnight at 37° C. in 5 mL Luria-Bertani medium supplemented with ampicillin, and 1 mL of this inoculum was added to and grown in 100 mL Terrific Broth culture medium (6 g bacto-tryptone, Difco Laboratories, Spark, Md., 12 g yeast extract, EM Science, Cherryhill, N.J., and 2 mL gycerol in 500 mL water) supplemented with 1 mM IPTG, 1 mM thiamine HCl and 50 μg ampicillin/mL. After 24 hours, the bacteria were harvested by centrifugation, resuspended in 20 mL of assay buffer (25 mM Mopso, pH 7.4) and then disrupted by sonication at 0–4° C. The resulting homogenate was centrifuged at 15,000 g to remove debris, and a 1 mL aliquot of the supernatant was incubated with 10-deacetylbaccatin III (400 μM) and [2-^3H]acetyl coenzyme A (0.45μCi, 400 μM) for 1 hour at 31° C. The reaction mixture was extracted with ether and the solvent concentrated in vacuo. The crude product (pooled from five such assays) was purified by silica gel thin-layer chromatography (TLC; 70:30 ethyl acetate:hexane).
The activity of TAX6 (SEQ ID NO: 45) was assayed under standard conditions described in Walker et al., Arch. Biochem. Biophys.

Series [2] deals with T2, taxadienol acetyl transacylase (TAX1) (Taxus cuspidata, UniProt Q9M6F0).
T2 construct: Full-length insert fragments of the relevant plasmids are excised and subcloned in-frame into the expression vector pCWori+; made in house; host or cells: E. coli JM109 (pCWori+)
T2 sequence (Q9M6F0 1-439): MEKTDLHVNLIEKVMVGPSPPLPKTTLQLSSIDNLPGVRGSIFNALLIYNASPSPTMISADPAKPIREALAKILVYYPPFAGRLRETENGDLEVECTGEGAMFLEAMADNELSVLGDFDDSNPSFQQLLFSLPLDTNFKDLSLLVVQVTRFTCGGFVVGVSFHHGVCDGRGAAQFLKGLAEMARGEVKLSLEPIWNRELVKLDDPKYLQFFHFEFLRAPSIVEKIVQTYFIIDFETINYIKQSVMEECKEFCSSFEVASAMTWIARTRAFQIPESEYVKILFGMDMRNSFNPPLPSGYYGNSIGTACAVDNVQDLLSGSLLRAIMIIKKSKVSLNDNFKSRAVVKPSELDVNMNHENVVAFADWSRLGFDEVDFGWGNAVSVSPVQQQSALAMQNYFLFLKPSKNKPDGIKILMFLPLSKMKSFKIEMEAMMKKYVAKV
Put plainly: recombinant TAX1 expressed in E. coli JM109, taxadienol acetyl transacylase assay. It counts as biochemical. To be noted: cell-free extract, radiochemical analysis. As to the method:
To determine the identity of the putative taxadienol acetyl transacylase, TAX1 (SEQ ID NO: 28), TAX2 (SEQ ID NO: 26), and TAX6 (SEQ ID NO: 45) were subcloned in-frame into the expression vector pCWori+ (Barnes, Methods Enzymol. 272:3–14, 1996) and expressed in E. coli JM109 cells. The transformed bacteria were cultured and induced with isopropyl β-D-thiogalactoside (IPTG), and cell-free extracts were prepared and evaluated for taxadienol acetyl transacylase activity using the previously developed assay procedures (Walker et al., Arch. Biochem. Biophys. 364:273–279, 1999). Clone TAX1 (corresponding directly to Probe 1) expressed high levels of taxadienol acetyl transacylase activity (20% conversion of substrate to product), as determined by radiochemical analysis; the product of this recombinant enzyme was confirmed as taxadienyl-5α-yl acetate by gas chromatography-mass spectrometry (GC-MS) (FIGS. 5A–5G). […] Neither of the recombinant proteins expressed from TAX1 (SEQ ID NO: 28) or TAX2 (SEQ ID NO: 26) was capable of acetylating the advanced paclitaxel precursor 10-deacetyl baccatin III to baccatin III. […]

B1: TAX6: full-length clone, SEQ ID NO: 44/45; 10-deacetylbaccatin III-10-O-acetyl transferase (protein, listed as Taxus cuspidata)
chain: T1 sequence (Q9M6E2 1-440)
As to B1, in series [1], the “optimum pH” value came to 7.5; the “pH at half-maximal velocities” value was 6.4 and 7.8.

B2: TAX1: full-length clone, SEQ ID NO: 27/28; encodes Taxus taxadienol acetyl transacylase (protein)
chain: T2 sequence (Q9M6F0 1-439)
With B2, the “taxadienol acetyl transacylase activity (conversion of substrate to product)” value in series [2] stood at 20%.
